In the supplement of paper PMC9170038:

Test system: K4 kissing-loop RNA reporter
Experiment: apparent KD of K4 kissing-loop reporter; higher = weaker reporter binding
Details: Eterna round: R107; input ligand: none
Procedure: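 RNA-MaP round R107: designed RNA switches with theophylline, tryptophan, arginine or FMN aptamers are transcribed on-chip within common flanks. They are titrated with a labelled K4 kissing-loop RNA reporter in RNA-MaP buffer (100 mM Tris pH 7.5, 80 mM KCl, 4 mM MgCl2), without ligand or with the indicated ligand. Median apparent KD per design.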
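Further: bound reporter read as fluorescence of individual clusters on recovered sequencing chips by microscopy, with normalized cluster intensities fitted with a binding model.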

| Sequence | apparent KD of K4 kissing-loop reporter [nM] |
| --- | --- |
| GGUACAGCGGAAGGAUAUCUGUCAUGGACGAUCGUAGCUUGAGCUCCCUGAGUGAUGUUUAGGAUGAGAGAAGGUCCACUCGUAU [theeternabot_exclusion_KL_FMN_B_2] | 591 |
| UUUAACGAGUGAUGUUCGAAGAGUAAUGGUGAGGAUAUCGAUUUUUCGAGAAGGCGCCUCGAAGUGAUACGAAAGUAUCGCUUCG [FMN A 6] | 286 |
| AGAUGUCUCUGGGAUACCAGUCGGAGUCUCAGGGCUCGGAGUGAUGUUCUGGGAUGUUUCGGCCCUUGGCAGCCCUGGGACUCCC [#2 Exclusion - Theophylline B Attempt #27 (HarryS)] | 649 |
| AAUCAAUACAGAAGGAGCGUGACAAUUACUAUUGAAUUAGGAGCUAGUGAUGUUAGCAUAACACAGGUAGGUCGCUGUACAUUUA [JR_SSArginiB_Sub012] | 163 |
| GCCGUACGCAUGGAUACCAGCAAGUAUAUAUGCUAGUGAUGUUAGCGCUAUGCGAUGCGGUGCCCUUGGCAGCCAUGCGUACGGC | 105 |
| UCUGGAGCGUAUGAUACCAGCAGAGAGAGACAGGAAGUAUAGUGAUGUUAUAUGAGAGAAUGCCCUUGGCAGCGUGUGCAGUGGC [#26 K4 Theophylline B Same State] | 66.8 |
| GACGGGCAGUGAUGUUGCCGGUCUCUUGGACGAGGACCGGUACGGCCGCCACUCGAUCUGAUGCGAGAAUUGUAUCUUUUAAUAA [Tegesosoat] | 242 |
| GGAUAGGACAGAGGAUAUGGGCUAGGCAAGAAUAACUUGUCUAGCAAAUCCAUGAGGAGUGAUGUUCCAGAAGGUUGUCCUAUCG [FmnBX 1 U75] | 92.3 |
| GUGACCUACUCAGGAUAUCCGCAGUGAUGUUGCGGUUGGCCUGAGCGACAUGAAAAUCUUACUACAGGAGAAGGGAGAGGGUUAC [Leanteti] | 109 |
| AAUUUAUUAACUGAUACCAGACUUAAUGAAUUGUAAAUUACUAGUGAUGUUAGUGAAUCUGUCCCUUGGCAGCAGUAUUUAUUAA [JR_ExcTheophyB_Sub010] | 173 |
| GAGGUACAGGCGGCCGCCACUAGUGAUGUUAGUGAUAAAAGAUAUAGUAAAUAUCGGCAUGUAGAUAGGACCGGGCCUGAUGGAG [ptvcmullin] | 234 |
| AACGCUGGUGAAUAACACUAGCGAAAAUUCCGAGGACCGGUACGGCCGCCACUCGGCUAACUGCGAGUGAUGUUCGAUAAUAAAA [Mat - Mod of OpenEnded 3 - D9] | 109 |
| GAGAAUAACGGAAGGAGCGAGUAAUGGAGUGAUGUUCCAAUCAAUAAAACACAAUAAAAUACUCAGGUAGGUCGCCGUAGUAGUU [Exclusion Argiie B GF 12] | 323 |
| GGGAAGAAGGCGGCCGCCACUGCAGAAGAGACAGAGAGGGUAGAAGAGGAGUGAUGUUCCAAGAACAGGACCGGGCCAAGAAGGG [whbob_SS_Tryp_B_t30] | 226 |
| AUUUUUUUGUCAGGAUAUUAGUAUGCGUUUGGUUUGUUAGUGAUGUUGAUAUUUUGUUUAUGUAUUUAAGAAGGGAUUUAGCGGU [yyitemullin] | 511 |
| AGAUACUUUAUCGCUAGAGGCAUUGCAGAUACCAGCCUAUCUAGAGGCCCUUGGCAGCUGGAGUGAUGUUUCGGCUUAGCUAAAG [theeternabot_exclusion_KL_Theo_A_32] | 323 |
| CAUAGGAAACUAUGUUUCUCUCUGACUGAAGGAGCGCGUGAAAACGCAGGUAGGUCGCAGAAUUUAACAGAGAGUGAUGUUCUCA [Ex Arginine A K4 12] | 567 |
| UGCACGUAGUGAUGUUACAGCAAGUUUAUGAAGGAUAUGAGGUUAGUCAGAAGGUCAGCCGUCUCGUUGUAAGCACCUUAUCAUU [theeternabot_exclusion_KL_FMN_A_14] | 232 |
| GGAUCCGCCAGUGAUGUUGGAGAAAACUCCAAGGAUAUGACGAAAGUCAGAAGGUGGUAGACUGGACAAAGUCCGGUCGGAUCCA [FmnA 26 #SwitchBubble #K4Early] | 932 |
| UUAGAGGCCCAGUGAUGUUGGGUGGUUGGGCGAGGACCGGUACGGCCGCCACUCGCCGCGGAACUAUCGGAAUCUCGCUCGGCUA [Aninxearqu] | 239 |
| GGAUCCACCAGUGAUGUUGGAGAAAACUUCAAGGAUAUGACGAAAGUCAGAAGGUGGUAGACUGGUCAAAGUCCGGUCGGAUCCA [FmnA10 U29+U66] | 459 |
| UUUUACGAGUGAUGUUCGUAUUGUAAUAGUUAGGAUAUCGUUUUUUCGAGAAGGAACUUCGAAGUGAUACGAAAGUAUCGCUUCG [FMN A 10] | 154 |

Same assay, conditions: Eterna round: R107; input ligand: theophylline 20 uM

| Sequence | apparent KD of K4 kissing-loop reporter [nM] |
| --- | --- |
| AUCGAUAUCAGAGGAUAUGCUUAAUAGAUUUAUUAUUAUCUAUUAUGCAGUGAUGUUGCAUAUUUUGCAGAAGGCUGAUUUCGAA [JR_SSFMNB_Sub019] | 429 |
| CUUGAUGGAAACAUCGAGUAGAUUACUGAUACCAGUAUCGAUAGAUACCCUUGGCAGCAGAAUCAGUGAUCACGAGUGAUGUUCG [Ex Theophylline A K4 8] | 451 |
| AGGUGAGACUGAAGGAGCGAUCGCGCCAGUGAUGUUGGUGAGCAUGACAAAGUCAUGCACGAUCAGGUAGGUCGCAGUCUUACUC [Omei KL Arginine B SS B v2] | 188 |
| AAGAGGUAGGCGGCCGCCACUAGUUGUGAACACAUACGAGCCAGUGAUGUUGGUAUUGUGGGCGGUAGGACCGGGCCUACCUGAA [Exclusion - Tryptophan B (Freestyle 19)] | 322 |
| UCUCUUCUCAGUGAUGUUGAGUAAUCGGAAGGAGCGCGUGAAAACGCAGGUAGGUCGCCGAUUUGUGAAGUAUCUUCGCAAGAGA [Arginine A K4 26] | 441 |
| AAGGUCACUACUACAGUGAUGUUGUAGGAGCAGGAUAUGCAGAAAUGCAGAAGGGCUCGCUCCAGGUGACCGAAUGAAACAUUCA [Omei KL FMN A SS A v3] | 475 |
| GGCGAUGAGUGAUGUUCAAAGAAUAAUGAUACCAGCUGAUGUCGAAGCCCUUGGCAGCAUAGAUACACCAAGUGAUGGUAAUGCC [Default title] | 235 |
| AACGGCCAGUCGGCCGCCACUCGAUGCAGUGAUGUUGCUAACUUUCUAAAAGAGUGAUGUUCAUGGAGGACCGGGACUAAUGUAA [#29 K4 Tryptophan B Exclusion] | 382 |
| GGACCGCCAGUGAUGUUGGAGAUAAACUCCAAGGAUAUGACGAAAGUCAGAAGGUGGUAAUAAGACGUCAAAGACGUCAGGUCCA [FmnA 21 #SwitchBubble #K4Early] | 301 |
| AAAACUCAUGGCUUAUAUCCGUGUCUCGAAGGAGCGUACAGCGGUACAGGUAGGUCGCGAGACAUGAGUGAUGUUCAUGUGUAAA [KL-XArg-A6 #analogue] | 169 |
| AAUUUAUUAUCUGAUACCAGACUUUUUCUUGUUUAUAAGUCAAGUGAUGUUUGACUUUUAGUCCCUUGGCAGCAGUAUUUUUUAA [JR_Nu_SSTheophyB_Sub026] | 113 |
| GGUAUCCAGUACCAUUGCGUUAAAACAGAAGGAGCGAGUAUGGACUCAGGUAGGUCGCUGUUUAUAGUCGAGUGAUGUUCGAAUC [Same State Arginine A GF 15] | 316 |
| CCAGGAUGAUGAGGAUGAUGAAUUACUGAAGGAGCGCAUAUGGUUGCAGGUAGGUCGCGGUGAACAAGUAUAGUGAUGUUAUGCC [SSArgA.W] | 1160 |
| UUUGGUUUCUCGGCCGCCACUCGUUGGUUAUGGGCUUCAGGGAUAUAGUGAUGUUAUGUAUAGAAGAGGACCGGGAGAAGGAAGG [ExTryptoB.Dq] | 186 |
| UCGCCAAAGUCGGCCGCCACUCCGGGCCCUAUAAAUGGGCGCAGUGAUGUUGCGGCUAGGCCUCUGAGGACCGGGACUUUGUAGA [Esenusza] | 233 |
| UGGACAUGACUCGAUAAGAGUCAAUGGGAUACCAGUGACGAAAGUCACCCUUGGCAGCUCAACUGCCAGUGAUGUUGGUAGUCCU [Astros-Elimod] | 157 |

| Sequence | apparent KD of K4 kissing-loop reporter [nM] |
| --- | --- |
| GUAUCGCUAGGAGGAUAUUUCGUUUUUCAUAGCAAUGGCUAUGCGGAGUGAUGUUCCGAUUUACCGGAAGAAGGCCUAGUGAUAC [FMN B 26] | 205 |
| AGUAGUUGGACGGCCGCCACUAGAACAGCUUUGCCAAAGGCAGAGCACUAGAGUGAUGUUCUAGCUAGGACCGGGUCCAACUACA [Omei KL Tryp B SS A v1] | 118 |
| UGACUGGACUGAAGGAGCGAGGACGGUCAUAGACCGAAAUCAGUGAUGUUGAAAGAUAAACCUCAGGUAGGUCGCAGUCUAGUCU [ArgBS 1 #SwitchBubble #StaticStem] | 546 |
| AACUGUCAAGGCCGACAUUACUGAGGUGAUACCAGCAUCGAAAGAUGCCCUUGGCAGCACCAACUUGCAGUGAUGUUGCAAGUAA [BrourdMod 14 - Jieux - Exclusion - Theophylline A] | 198 |
| CCUAGUCGGAUACUCAAUCCAAUGCGAGAUACCAGCGGUCUUACGCGCCCUUGGCAGCUCAUAAUGAUGAACCAGUGAUGUUGGG [theeternabot_sameState_KL_Theo_A_40] | 446 |
| GGUACAGCGGAAGGAUAUCUGUCAUGGACGAUCGUAGCUUGAGCUCCCUGAGUGAUGUUUAGGAUGAGAGAAGGUCCACUCGUAU [theeternabot_exclusion_KL_FMN_B_2] | 626 |
| UUUAACGAGUGAUGUUCGAAGAGUAAUGGUGAGGAUAUCGAUUUUUCGAGAAGGCGCCUCGAAGUGAUACGAAAGUAUCGCUUCG [FMN A 6] | 253 |
| AGAUGUCUCUGGGAUACCAGUCGGAGUCUCAGGGCUCGGAGUGAUGUUCUGGGAUGUUUCGGCCCUUGGCAGCCCUGGGACUCCC [#2 Exclusion - Theophylline B Attempt #27 (HarryS)] | 740 |
| AAUCAAUACAGAAGGAGCGUGACAAUUACUAUUGAAUUAGGAGCUAGUGAUGUUAGCAUAACACAGGUAGGUCGCUGUACAUUUA [JR_SSArginiB_Sub012] | 182 |
| GCCGUACGCAUGGAUACCAGCAAGUAUAUAUGCUAGUGAUGUUAGCGCUAUGCGAUGCGGUGCCCUUGGCAGCCAUGCGUACGGC | 106 |
| UCUGGAGCGUAUGAUACCAGCAGAGAGAGACAGGAAGUAUAGUGAUGUUAUAUGAGAGAAUGCCCUUGGCAGCGUGUGCAGUGGC [#26 K4 Theophylline B Same State] | 53.4 |
| GACGGGCAGUGAUGUUGCCGGUCUCUUGGACGAGGACCGGUACGGCCGCCACUCGAUCUGAUGCGAGAAUUGUAUCUUUUAAUAA [Tegesosoat] | 346 |
| GGAUAGGACAGAGGAUAUGGGCUAGGCAAGAAUAACUUGUCUAGCAAAUCCAUGAGGAGUGAUGUUCCAGAAGGUUGUCCUAUCG [FmnBX 1 U75] | 120 |
| GUGACCUACUCAGGAUAUCCGCAGUGAUGUUGCGGUUGGCCUGAGCGACAUGAAAAUCUUACUACAGGAGAAGGGAGAGGGUUAC [Leanteti] | 89.2 |
| AAUUUAUUAACUGAUACCAGACUUAAUGAAUUGUAAAUUACUAGUGAUGUUAGUGAAUCUGUCCCUUGGCAGCAGUAUUUAUUAA [JR_ExcTheophyB_Sub010] | 208 |
| GAGGUACAGGCGGCCGCCACUAGUGAUGUUAGUGAUAAAAGAUAUAGUAAAUAUCGGCAUGUAGAUAGGACCGGGCCUGAUGGAG [ptvcmullin] | 234 |
